US20240197828A1, “Chimeric molecule to treat sepsis and other inflammatory conditions” (THE FEINSTEIN INSTITUTES FOR MEDICAL RESEARCH, priority 2022, published 2024)

Biological target: T1, rhCIRP (Homo sapiens, UniProt Q14011)
T1 sequence (Q14011 1-172): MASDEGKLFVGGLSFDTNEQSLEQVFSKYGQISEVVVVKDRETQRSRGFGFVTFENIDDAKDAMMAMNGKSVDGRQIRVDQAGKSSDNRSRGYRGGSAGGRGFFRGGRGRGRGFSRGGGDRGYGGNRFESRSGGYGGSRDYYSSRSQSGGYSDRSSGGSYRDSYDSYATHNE
Assay: Biacore binding of recombinant human proteins (rhCIRP and rhMFG-E8)
Details: read-out: KD between rhCIRP and rhMFG-E8

B1: rhMFG-E8: recombinant human MFG-E8 (protein)
chain: LDICSKNPCHNGGLCEEISQEVRGDVFPSYTCTCLKGYAGNHCETKCVEPLGLENGNIANSQIAASSVRVTFLGLQHWVPELARLNRAGMVNAWTPSSNDDNPWIQVNLLRRMWVTGVVTQGASRLASHEYLKAFKVAYSLNGHEFDFIHDVNKKHKEFVGNWNKNAVHVNLFETPVEAQYVRLYPTSCHTACTLRFELLGCELNGCANPLGLKNNSIPDKQITASSSYKTWGLHLFSWNPSYARLDKQGNFNAWVAGSYGNDQWLQVDLGSSKEVTGIITQGARNFGSVQFVASYKVAYSNDSANWTEYQDPRTGSSKIFPGNWDNHSHKKNLFETPILARYVRILPVAWHNRIALRLELLGC
Kd: 29 nM
